This note sets out measurements from patent US20060204492A1 (published 2006).

Substitutions are numbered along the chain they refer to.

B1: LM609 grafted antibody variant A102 (Fab, V domains shown)
VH: QVQLVESGGGVVQPGRSLRLSCAASGFTFSSYDMSWVRQAPGKGLEWVAKVSSGGGSTYYLDTVQGRFTISRDNSKNTLYLQMNSLRAEDTAVYYCARHNYGSFAAWGQGTTVTVSS
VL: EIVLTQSPATLSLSPGERATLSCQASQSISNHLHWYQQRPGQAPRLLIRYRSQSISGIPARFSGSGSGTDFTLTISSLEPEDFAVYYCQQSGSWPHTFGGGTKVEIK
notes: Fab
B2: LM609 grafted antibody variant D102 (Fab, V domains shown)
VH: B1 VH with A106D
VL: B1 VL
notes: Fab
B3: LM609 grafted antibody variant T102 (Fab, V domains shown)
VH: B1 VH with A106T
VL: B1 VL
notes: Fab
B4: LM609 grafted antibody variant L96 (Fab, V domains shown)
VH: B1 VH with A106Y
VL: B1 VL with H96L
notes: Fab
B5: LM609 grafted antibody variant K52 (Fab, V domains shown)
VH: B1 VH with S52K, A106Y
VL: B1 VL
notes: Fab
B6: LM609 grafted antibody variant P60 (Fab, V domains shown)
VH: B1 VH with L61P, A106Y
VL: B1 VL
notes: Fab
B7: LM609 grafted antibody variant N92 (Fab, V domains shown)
VH: B1 VH with A106Y
VL: B1 VL with G92N
notes: Fab; also called LM609 grafted antibody having Asn at position 92 of light chain CDR3
B8: LM609 grafted antibody variant S51 (Fab, V domains shown)
VH: B1 VH with A106Y
VL: B1 VL with R51S
notes: Fab
B9: LM609 grafted antibody variant T27 (Fab, V domains shown)
VH: B1 VH with F27T, A106Y
VL: B1 VL
notes: Fab
B10: LM609 grafted antibody variant W29 (Fab, V domains shown)
VH: B1 VH with F29W, A106Y
VL: B1 VL
notes: Fab
B11: LM609 grafted antibody variant T92 (Fab, V domains shown)
VH: B1 VH with A106Y
VL: B1 VL with G92T
notes: Fab
B12: LM609 grafted antibody variant Q96 (Fab, V domains shown)
VH: B1 VH with A106Y
VL: B1 VL with H96Q
notes: Fab

T1 sequence (P06756 31-1048, form in doubt, chain 1 of 2): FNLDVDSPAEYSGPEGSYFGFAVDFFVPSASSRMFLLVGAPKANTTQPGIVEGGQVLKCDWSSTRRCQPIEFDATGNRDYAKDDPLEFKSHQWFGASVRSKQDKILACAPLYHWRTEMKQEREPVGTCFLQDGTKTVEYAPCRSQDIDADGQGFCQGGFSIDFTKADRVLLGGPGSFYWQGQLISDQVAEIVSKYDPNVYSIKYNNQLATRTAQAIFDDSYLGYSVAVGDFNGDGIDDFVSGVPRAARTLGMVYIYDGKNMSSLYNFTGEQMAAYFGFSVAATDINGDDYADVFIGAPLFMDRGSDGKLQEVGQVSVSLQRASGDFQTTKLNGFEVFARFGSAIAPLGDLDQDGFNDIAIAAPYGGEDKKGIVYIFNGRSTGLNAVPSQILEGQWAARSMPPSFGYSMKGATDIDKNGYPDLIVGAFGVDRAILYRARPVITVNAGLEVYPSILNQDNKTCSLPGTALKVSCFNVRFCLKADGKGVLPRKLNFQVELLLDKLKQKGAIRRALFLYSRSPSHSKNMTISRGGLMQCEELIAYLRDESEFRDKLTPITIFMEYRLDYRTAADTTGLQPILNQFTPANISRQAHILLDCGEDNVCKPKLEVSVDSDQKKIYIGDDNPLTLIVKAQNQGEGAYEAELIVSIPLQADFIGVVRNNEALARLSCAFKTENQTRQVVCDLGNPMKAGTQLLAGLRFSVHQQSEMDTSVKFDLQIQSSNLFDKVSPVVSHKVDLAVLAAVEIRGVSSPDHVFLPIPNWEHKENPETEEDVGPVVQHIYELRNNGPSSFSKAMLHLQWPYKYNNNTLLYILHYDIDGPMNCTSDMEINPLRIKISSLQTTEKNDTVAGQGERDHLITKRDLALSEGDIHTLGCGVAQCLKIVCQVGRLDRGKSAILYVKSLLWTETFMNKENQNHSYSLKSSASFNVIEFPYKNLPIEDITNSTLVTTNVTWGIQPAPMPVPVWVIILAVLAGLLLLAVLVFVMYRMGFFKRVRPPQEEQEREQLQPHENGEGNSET
T1 sequence (P05106 27-788, form in doubt, chain 2 of 2): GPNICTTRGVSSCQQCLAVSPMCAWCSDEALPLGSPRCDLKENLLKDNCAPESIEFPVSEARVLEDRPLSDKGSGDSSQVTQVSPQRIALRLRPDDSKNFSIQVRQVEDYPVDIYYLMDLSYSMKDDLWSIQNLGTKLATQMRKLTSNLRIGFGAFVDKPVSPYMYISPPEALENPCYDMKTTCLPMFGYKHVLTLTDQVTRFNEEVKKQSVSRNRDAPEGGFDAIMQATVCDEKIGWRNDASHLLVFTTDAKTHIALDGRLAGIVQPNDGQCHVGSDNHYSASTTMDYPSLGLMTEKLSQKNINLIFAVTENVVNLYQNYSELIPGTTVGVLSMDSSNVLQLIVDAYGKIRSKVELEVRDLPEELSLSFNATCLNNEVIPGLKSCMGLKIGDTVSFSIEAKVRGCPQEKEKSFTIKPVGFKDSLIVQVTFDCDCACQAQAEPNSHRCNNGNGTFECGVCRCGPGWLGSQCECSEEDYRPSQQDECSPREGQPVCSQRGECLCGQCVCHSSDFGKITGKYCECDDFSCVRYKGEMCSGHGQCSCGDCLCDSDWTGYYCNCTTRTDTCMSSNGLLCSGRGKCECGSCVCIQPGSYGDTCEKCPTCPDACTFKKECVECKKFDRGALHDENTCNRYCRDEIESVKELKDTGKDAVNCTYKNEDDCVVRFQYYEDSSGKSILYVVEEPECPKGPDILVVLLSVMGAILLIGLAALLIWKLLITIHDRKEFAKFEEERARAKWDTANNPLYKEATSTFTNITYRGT

One assay concerns the target T1, integrin αvβ3, purified from human placenta (human, UniProt P06756 31-1048; P05106 27-788).
T1 construct: mature; Native heterodimer, immobilized on ELISA plates or on the BIAcore chip; biotinylated in capture lift and capture ELISA screens; also called αvβ3 receptor; vitronectin receptor
In words: SPR (BIAcore), purified Fab over immobilized αvβ3.
Protocol: The affinities of select variants were further characterized by utilizing surface plasmon resonance (BIAcore) to measure the association and dissociation rates of purified Fab with immobilized αᵥβ₃. […] To obtain association rate constants (kₒₙ), the binding rate at five different Fab concentrations, ranging from 5-40 μg/ml in 50 mM Tris-HCl, pH 7.4, 100 mM NaCl, 2 mM CaCl₂, and 1 mM MgCl₂, was determined at a flow rate of 10 μl/min. Dissociation rate constants (koff) were the average of five measurements obtained by analyzing the dissociation phase at an increased flow rate (40 μl/min). Sensorgrams were analyzed with the BIAevaluation 2.1 program (Pharmacia). Residual Fab was removed after each measurement with 10 mM HCl, 2 mM CaCl₂ and 1 mM MgCl₂.
In turn, B1 returned a Kd of 8.3 nM, a koff of 0.00227 s⁻¹ and a kon of 275000 M⁻¹ s⁻¹.
B2: the affinity, expressed as Kd, was 3.5 nM; the koff was determined as 0.00097 s⁻¹; the kon worked out at 276000 M⁻¹ s⁻¹.
For B3 the same measures were 5.8 nM, 0.00143 s⁻¹ and 246000 M⁻¹ s⁻¹.
Molecule B4 returned a Kd of 9.2 nM, a koff of 0.00223 s⁻¹ and a kon of 243000 M⁻¹ s⁻¹.
Molecule B5 displayed a Kd of 12.2 nM, a koff of 0.00218 s⁻¹ and a kon of 178000 M⁻¹ s⁻¹.
For B6 the same measures were 5.8 nM, 0.00185 s⁻¹ and 318000 M⁻¹ s⁻¹.
For B7 the same measures were 5.7 nM, 0.00135 s⁻¹ and 236000 M⁻¹ s⁻¹.

A further assay concerns the target T1, integrin αvβ3, purified from human …. As to the kind of experiment: ELISA titration of Fab on immobilized αvβ3.
Protocol: Just prior to use, the plates were washed two times and were then incubated 1 h at 25° C. with various dilutions of Fab. […] All dilutions and washes were in 50 mM Tris-HCl, pH 7.4, 100 mM NaCl, 2 mM CaCl₂, and 1 mM MgCl₂.
Take B1: the “fold enhanced binding over parent LM609 grafted antibody” value (from here on “fold enhanced binding”) is above 3 fold.
B8: the “fold enhanced binding” value is above 3 fold.
Same read-out and setting: the figure for B2 is above 3 fold.
Same read-out and setting: the result for B3 reads above 3 fold.
Same read-out and setting: the figure for B4 is above 3 fold; for B9 it is above 3 fold; for B5 it is above 3 fold.
As to B6, the “fold enhanced binding” value is above 3 fold.
Same read-out and setting: the figure for B10 is above 3 fold; for B7 it is above 3 fold; for B11 it is above 3 fold.
On to B12, for which the “fold enhanced binding” value is above 3 fold.
